In article PMC6509359 one finds stoichiometry N data, which are given here for seven substances.

For orientation: stoichiometry N means the number of molecules, sites or subunits per partner or assembly.

Assay [1] deals with D. rerio USP28 (138-684) (zebrafish (Danio rerio)). Briefly: not stated; oligomeric states of purified orthologs and of full-length proteins, Figures S7A, S7B and S3J.
Assay [2] has as its target D. rerio USP28 (1-738,763-1187) (zebrafish (Danio rerio)). Described as above.
Assay [3] addresses G. gallus USP25 (174-726) (chicken (Gallus gallus)). Described as above.
The target of assay [4] is Chimera: Huma USP25 (157-[AIM of D. rerio USP28]-714) (human | zebrafish (Danio rerio)). Briefly: SEC-MALS; 100 μL of 1-2 mg/mL protein on Superdex 200 10/300, 0.5 mL/min, PBS + 2 mM DTT. Background: In gel filtration, larger molecules generally elute earlier.
In assay [5] the target is Chimera: Human USP25 (157-[Insert of Human USP28]-714) (human). Described as above.
Assay [6] addresses G. gallus USP25 (174-726)∼Ub-PA (chicken (Gallus gallus) | not stated). As to the kind of experiment: not stated; oligomeric states of purified orthologs and of full-length proteins, Figures S7A, S7B and S3J.
Assay [7] deals with Chimera: Human USP28 (149-[Insert of Human USP25]-703) (human). As to the kind of experiment: SEC-MALS; 100 μL of 1-2 mg/mL protein on Superdex 200 10/300, 0.5 mL/min, PBS + 2 mM DTT.

In assay [1], “D. rerio USP28 (138-684) (domain or fragment)” came in with a stoichiometry N of 2.

For “D. rerio USP28 (1-738,763-1187) (enzyme)”, in assay [2], the stoichiometry N turned out to be 2.

Substance “G. gallus USP25 (174-726) (domain or fragment)” came in with a stoichiometry N in assay [3] of 4.

Regarding “Chimera: Huma USP25 (157-[AIM of D. rerio USP28]-714) (domain or fragment)”, the stoichiometry N in assay [4] is 2.

On to “Chimera: Human USP25 (157-[Insert of Human USP28]-714) (domain or fragment)”, for which the stoichiometry N in assay [5] is 2.

For the substance “G. gallus USP25 (174-726)∼Ub-PA (from UniProt P0CG48 1-75) (complex)”, the stoichiometry N in assay [6] was 2.

Take “Chimera: Human USP28 (149-[Insert of Human USP25]-703) (domain or fragment)”: the stoichiometry N in assay [7] came out at 2.
